Residue numbers refer to the chain shown, from its start.
T1: human ADAMTS13 (human, UniProt Q76LX8 75-1427)
T1 construct: ELISA: full-length recombinant ADAMTS13 coated on plates (Technoclone); Activity assays: endogenous ADAMTS13 of normal human plasma; also called full-length human recombinant ADAMTS13; VWF-cleaving protease
T1 sequence (looked up): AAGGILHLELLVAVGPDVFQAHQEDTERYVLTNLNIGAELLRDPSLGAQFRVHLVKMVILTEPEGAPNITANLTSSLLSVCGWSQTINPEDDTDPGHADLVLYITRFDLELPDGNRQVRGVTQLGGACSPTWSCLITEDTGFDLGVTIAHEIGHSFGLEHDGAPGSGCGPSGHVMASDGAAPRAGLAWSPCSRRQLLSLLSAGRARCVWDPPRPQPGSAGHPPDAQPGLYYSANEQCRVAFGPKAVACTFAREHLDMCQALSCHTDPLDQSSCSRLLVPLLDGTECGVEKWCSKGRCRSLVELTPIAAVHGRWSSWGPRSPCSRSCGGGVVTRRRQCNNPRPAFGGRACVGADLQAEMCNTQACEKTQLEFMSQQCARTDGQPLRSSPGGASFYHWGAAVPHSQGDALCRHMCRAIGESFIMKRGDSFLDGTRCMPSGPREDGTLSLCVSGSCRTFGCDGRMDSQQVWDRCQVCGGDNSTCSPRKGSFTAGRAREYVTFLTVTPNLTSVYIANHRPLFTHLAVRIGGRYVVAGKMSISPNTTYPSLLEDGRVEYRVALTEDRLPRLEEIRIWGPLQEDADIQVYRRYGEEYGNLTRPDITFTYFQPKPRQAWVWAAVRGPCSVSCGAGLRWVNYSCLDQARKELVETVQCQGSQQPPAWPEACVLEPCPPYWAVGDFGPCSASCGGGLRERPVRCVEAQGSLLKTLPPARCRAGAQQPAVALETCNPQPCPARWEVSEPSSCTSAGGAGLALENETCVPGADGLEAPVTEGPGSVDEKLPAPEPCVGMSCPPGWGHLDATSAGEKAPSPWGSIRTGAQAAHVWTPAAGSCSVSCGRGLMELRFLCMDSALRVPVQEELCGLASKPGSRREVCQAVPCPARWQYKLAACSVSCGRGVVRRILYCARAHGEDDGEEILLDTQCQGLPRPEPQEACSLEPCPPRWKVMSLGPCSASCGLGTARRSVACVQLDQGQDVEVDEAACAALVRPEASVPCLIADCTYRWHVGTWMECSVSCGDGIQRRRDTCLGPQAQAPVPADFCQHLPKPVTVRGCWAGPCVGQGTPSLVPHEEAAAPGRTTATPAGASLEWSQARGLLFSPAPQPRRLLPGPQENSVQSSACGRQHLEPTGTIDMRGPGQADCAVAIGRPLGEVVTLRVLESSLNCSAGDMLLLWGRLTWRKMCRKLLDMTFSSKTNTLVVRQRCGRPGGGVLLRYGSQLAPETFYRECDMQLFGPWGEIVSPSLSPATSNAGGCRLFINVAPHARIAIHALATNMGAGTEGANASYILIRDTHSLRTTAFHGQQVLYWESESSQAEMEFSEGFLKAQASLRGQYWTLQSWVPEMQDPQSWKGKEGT

B1: scFv 1-441 (scFv, V domains shown)
VH: QVQLQESGGGVVQPGRSLRLSCTDSGFTFSRYAMHWVRQAPGKGLEWVAGISYDGSYEYYADSVKGRFTISRDNSKNTLYVQMNSLRGEDTAVYYCARDLRGGEDYWGQGTLVTVSS
VL: ELVVTQPPSVSAAPGQKVTISCSGSTSNIGNNYVSWYQQFPGTAPKLLIYDNNKRPSGIPDRFSGSKSGTSATLGITGLQTGDEADYYCGTWDSSLSAVVFGGGTKVTVL
B2: scFv 2-108 (scFv, V domains shown)
VH: EVQLVQSGGGLVQPGGSLRLSCAASGFTFSSYWMSWVRQAPGKGLEWVANIKQDGSEKHYVDSMKGRFTISRDNGKNSLYLQMNSLRAEDTAVYYCARSPGYYFDYWGQGTLVTVSS
VL: ELVVTQPPSASGTPGQRVTISCSGSSSNIGSNYVYWYEQLPGTAPKLLIYRNNQRPSGVPDRFSGSKSGTSASLAISGLRSEDEADYYCAAWDDSLRVYVFGTGTKLTVL
B3: scFv z1-201 (scFv, V domains shown)
VH: QVQLVQFGGGLVQPGRSLRLSCAASGFIFDDYAMHWVRQAPGKGLEWVSGISWNSGSIGYADSVKGRFTISRDNAKNSLYLQMNSLRAEDTALYYCAKDPNSLYRSGSFDYWGQGTLVTVSS
VL: not shown
B4: scFv 1-401 (scFv, V domains shown)
VH: QVQLVQSGAELKKPGSSVKVSCKASGGAFTMYTINWVRQAPGRGLEWMGRIIPILGITDYAQKFQGRGTITADKSTSTAYLELSGLTSEDTAVYYCAREFSGGNYFDFWGQGTLVTVSS
VL: ELVLTQPPSVSVAPGKTARMTCGGNNIGGYSVHWYQQKPGQAPVLVVYHDSDRPSGIPERFTGSNSGNMATLTISRVEAGDEADYYCQVWDSSNDHSVFGGGTELTVL
B5: scFv 1-458 (scFv, V domains shown)
VH: B4 VH
VL: ELVLTQPPSVSVAPGKTARIPCGGNNIGGKSVHWYQQRPGQAPVLVVYSDSVRPSGIPERFSGSNSGNTATLTISRVEAGDEADYYCQVWDRSSDHVVFGGGTQLTVL
B6: scFv 1-450 (scFv, V domains shown)
VH: QVQLVQSGAEVKKPGSSMNVSCKASGGTFSRHTINWVRQAPGQGLEWMGSIIPILGITNYAQNFQGRLTFSADKSTNTAYVELSGLRSEDTAVYYCASGDYYYDMAVWGQGTTVAVTS
VL: ELVLTQPPSVSVSPGQTARITCSGDALPKQYAYWYQQKPGQAPVLVIYKDSERPSGIPERFSGSSSGTTATLTISGVQAEDEADYYCQSAYSSGTVVFGGGTELTVL
B7: scFv 2-206 (scFv, V domains shown)
VH: QVQLVQSGADVKKPGSSVKVSCKASGGTFSSYTINWVRQAPGQGLEWMGRIVPILDIANYAQKFQGRVTITADKSTSTAYMELSSLTSEDTAVYYCARDRGYDNKYGAYWGQGTLVTVSS
VL: ELVLTQPPSVSVAPGQTARITCGGNNIGSKNVHWYQQKPGQAPVLVVYDDSDRPSGIPERFSGSNSGNTATLTISRVEAGDEADYYCQVWDSSSDHWVFGGGTKVTVL
B8: scFv 2-304 (scFv, V domains shown)
VH: QVHLVQSGAEVKKPGSSVKVSCKASGGTFSSYAISWVRQAPGQGLEWMGGITPILGVTNYSQKFQGRVTVTADISTTTAYMELSSLTSEDTAVYYCARDQGYANDYGAYWGQGTLVTVSS
VL: B7 VL with G28E, D52G, V105L
B9: scFv 2-207 (scFv, V domains shown)
VH: B8 VH with H3Q
VL: B7 VL with N31S, Y48H, S75G, E78G, K104Q, V105L
B10: scFv 2-301 (scFv, V domains shown)
VH: B8 VH with H3Q
VL: B7 VL with T21I, N31T, T71A, D91H

biological target: T1, human ADAMTS13; test: phage ELISA on ADAMTS13-coated plates (positive: >10-fold absorbance above background)

Binder | binding result
B1 | binds
B2 | binds
B3 | binds
B4 | binds
B5 | binds
B6 | binds
B7 | binds
B8 | binds
B9 | binds
B10 | binds
